# Values of other authors in paper PMC1950483.
# Tests used:
# Assay in all cases: NMR
# Settings in all cases: folded FNfn10 in solution
# Glu9 = Glu9 (UniProt position 1546, VPRDLEVVAAT)
# Asp7 = Asp7 (UniProt position 1544, SDVPRDLEVVA)
# Asp23 = Asp23 (UniProt position 1560, LLISWDAPAVT)
substance,measurement,setting,value
"Fibronectin, tenth type III domain (FNfn10) (Homo sapiens)",pKa,Glu9,5.25
same,pKa,Asp7,5.54
same,pKa,Asp23,5.40
